In publication PMC4453921, “Crystal structure of caspase recruiting domain (CARD) of apoptosis repressor with CARD (ARC) and its implication in inhibition of apoptosis” (Scientific Reports, 2015):

Target: the molecule itself
Assay: SEC-MALS; Superdex 200 HR 10/30 equilibrated in appropriate buffer, coupled to three-angle light scattering and refractive index detectors, 0.2 ml/min

B1: ARC CARD domain (amino acids 1-95), wild type (domain or fragment, human, UniProt O60936 1-95, looked up)
chain: MGNAQERPSETIDRERKRLVETLQADSGLLLDALLARGVLTGPEYEALDALPDAERRVRRLLLLVQGKGEAACQELLRCAQRTAGAPDPAWDWQH
notes: Apoptosis repressor with caspase recruiting domain (ARC), human (208 amino acids), CARD domain, amino acids 1-95; Expression and purification are said to be described in detail elsewhere; A selenomethionine-substituted form was made for SAD phasing; also called CARD domain of ARC; caspase recruiting domain of apoptosis repressor with CARD; not shown: His-tag, C-terminal, kept
In the case of B1, the “stoichiometry N” value is reported as 2.
